Measurements from patent US20210340208A1 (ANWITA BIOSCIENCES, published 2021).

What was measured:
human CD122-Fc (AbroBio) = target: T1, human CD122-Fc (AbroBio) (human, UniProt P14784 27-239); assay: BLI (Octet RED96), CD122-Fc on AHC sensor, 400 nM hIL-2 polypeptide
T1 construct: also called IL-2Rβ; not shown: Fc part and any linker of the bought protein are not described; captured on an anti-human Fc sensor
T1 sequence: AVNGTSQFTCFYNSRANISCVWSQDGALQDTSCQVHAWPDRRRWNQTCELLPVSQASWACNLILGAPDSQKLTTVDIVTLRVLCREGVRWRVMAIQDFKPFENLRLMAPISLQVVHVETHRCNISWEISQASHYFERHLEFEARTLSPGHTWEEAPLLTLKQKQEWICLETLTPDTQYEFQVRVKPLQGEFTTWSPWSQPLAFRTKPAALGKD
Procedure: OCTET® RED96 was used to characterize the interactions of a human CD122-Fc (AbroBio) with a wild-type hIL-2 and hIL-2 muteins. Briefly, an anti-human Fc sensor (AHC) loaded with the human CD122 was dip into 400 nM of an hIL-2 polypeptide. The binding signaling of fusion protein A1 was normalized to 1.

IL-2Rα-Fc fusion protein [1] = target: T2, IL-2Rα-Fc fusion protein (human, UniProt P01589 22-240); assay: BLI (Octet RED96), IL-2Rα-Fc on AHC biosensor
T2 construct: also called human IL-2Rα (CD25); CD25; not shown: Fc part and any linker are not described; captured on an anti-human IgG Fc sensor
T2 sequence: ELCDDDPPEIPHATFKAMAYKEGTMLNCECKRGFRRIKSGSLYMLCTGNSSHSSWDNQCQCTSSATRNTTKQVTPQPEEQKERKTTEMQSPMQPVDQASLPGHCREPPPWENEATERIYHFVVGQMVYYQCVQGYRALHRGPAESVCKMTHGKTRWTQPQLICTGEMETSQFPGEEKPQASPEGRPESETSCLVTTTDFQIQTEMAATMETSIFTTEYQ
Procedure: (§1) OCTET® RED96 was used to characterize the interactions of a wild-type hIL-2 and hIL-2 muteins with a human IL-2Rα (CD25). Briefly, an IL-2Rα-Fc fusion protein was loaded onto an anti-human IgG Fc capture (AHC) biosensor. The biosensor was then dipped into a solution containing a wild-type hIL-2 (WT IL-2) or an IL-2 mutein at various concentrations. Primary experimental data was analyzed with global fitting to determine a binding affinity (Kd).

IL-2Rα-Fc fusion protein [2] = target: T2, IL-2Rα-Fc fusion protein; assay: BLI (Octet RED96), IL-2Rα-Fc on AHC biosensor, global fit
Procedure: as §1

Binder	CD122 Binding Response (A1 normalized to 1) (human CD122-Fc (AbroBio))	binding result (IL-2Rα-Fc fusion protein [1])	Kd (IL-2Rα-Fc fusion protein [2]) [nM]
hIL-2-anti-HSA A2 (ligand, glycosylated IL-2 (site and glycan not stated for the tested protein), fused to anti-HSA VHH; also called hIL-2 mutein (R38N, L40T, C125S); glycosylated IL-2) APTSSSTKKTQLQLEHLLLDLQMILNGINNYKNPKLTNMTTFKFYMPKKATELKHLQCLEEELKPLEEVLNLAQSKNFHLRPRDLISNINVIVLELKGSETTFMCEYADETATIVEFLNRWITFSQSIISTLTGSGGSGGSGGSGEVQLVESGGGLVQPGGSLRLSCAASGSTWSINTLAWYRQAPGKQRDLVARISSGGSTYYADSVKGRFTISRDNSKNTLYLQMNSLRAEDTAVYYCYAQSTWYPPSWGQGTLVTVSS	0.68	no binding	
hIL-2-anti-HSA A49 (ligand, fused to anti-HSA VHH; also called hIL-2 mutein (K32E, F42C, V69C, C125S); IL-2 with an additional disulfide bond) APTSSSTKKTQLQLEHLLLDLQMILNGINNYENPKLTRMLTCKFYMPKKATELKHLQCLEEELKPLEECLNLAQSKNFHLRPRDLISNINVIVLELKGSETTFMCEYADETATIVEFLNRWITFSQSIISTLTGSGGSGGSGGSGEVQLVESGGGLVQPGGSLRLSCAASGSTWSINTLAWYRQAPGKQRDLVARISSGGSTYYADSVKGRFTISRDNSKNTLYLQMNSLRAEDTAVYYCYAQSTWYPPSWGQGTLVTVSS	1.04	no binding	
hIL-2-anti-HSA A48 (ligand, fused to anti-HSA VHH; also called hIL-2 mutein (K32E, R38C, L72C, C125S)) APTSSSTKKTQLQLEHLLLDLQMILNGINNYENPKLTCMLTFKFYMPKKATELKHLQCLEEELKPLEEVLNCAQSKNFHLRPRDLISNINVIVLELKGSETTFMCEYADETATIVEFLNRWITFSQSIISTLTGSGGSGGSGGSGEVQLVESGGGLVQPGGSLRLSCAASGSTWSINTLAWYRQAPGKQRDLVARISSGGSTYYADSVKGRFTISRDNSKNTLYLQMNSLRAEDTAVYYCYAQSTWYPPSWGQGTLVTVSS		no binding	
hIL-2-anti-HSA A36 (ligand, fused to anti-HSA VHH; also called IL2 mutein (K32E, R38A, C125S)) APTSSSTKKTQLQLEHLLLDLQMILNGINNYENPKLTAMLTFKFYMPKKATELKHLQCLEEELKPLEEVLNLAQSKNFHLRPRDLISNINVIVLELKGSETTFMCEYADETATIVEFLNRWITFSQSIISTLTGSGGSGGSGGSGEVQLVESGGGLVQPGGSLRLSCAASGSTWSINTLAWYRQAPGKQRDLVARISSGGSTYYADSVKGRFTISRDNSKNTLYLQMNSLRAEDTAVYYCYAQSTWYPPSWGQGTLVTVSS			50
hIL-2-anti-HSA A53 (ligand, fused to anti-HSA VHH; also called hIL-2 mutein (F42C, V69C, K76E, C125S)) APTSSSTKKTQLQLEHLLLDLQMILNGINNYKNPKLTRMLTCKFYMPKKATELKHLQCLEEELKPLEECLNLAQSENFHLRPRDLISNINVIVLELKGSETTFMCEYADETATIVEFLNRWITFSQSIISTLTGSGGSGGSGGSGEVQLVESGGGLVQPGGSLRLSCAASGSTWSINTLAWYRQAPGKQRDLVARISSGGSTYYADSVKGRFTISRDNSKNTLYLQMNSLRAEDTAVYYCYAQSTWYPPSWGQGTLVTVSS		no binding	
hIL-2-anti-HSA A52 (ligand, fused to anti-HSA VHH; also called hIL-2 mutein (F42C, V69C, C125S)) APTSSSTKKTQLQLEHLLLDLQMILNGINNYKNPKLTRMLTCKFYMPKKATELKHLQCLEEELKPLEECLNLAQSKNFHLRPRDLISNINVIVLELKGSETTFMCEYADETATIVEFLNRWITFSQSIISTLTGSGGSGGSGGSGEVQLVESGGGLVQPGGSLRLSCAASGSTWSINTLAWYRQAPGKQRDLVARISSGGSTYYADSVKGRFTISRDNSKNTLYLQMNSLRAEDTAVYYCYAQSTWYPPSWGQGTLVTVSS		no binding	
hIL-2-anti-HSA A47 (ligand, fused to anti-HSA VHH; also called hIL-2 mutein (K32E, K35C, L72C, C125S)) APTSSSTKKTQLQLEHLLLDLQMILNGINNYENPCLTRMLTFKFYMPKKATELKHLQCLEEELKPLEEVLNCAQSKNFHLRPRDLISNINVIVLELKGSETTFMCEYADETATIVEFLNRWITFSQSIISTLTGSGGSGGSGGSGEVQLVESGGGLVQPGGSLRLSCAASGSTWSINTLAWYRQAPGKQRDLVARISSGGSTYYADSVKGRFTISRDNSKNTLYLQMNSLRAEDTAVYYCYAQSTWYPPSWGQGTLVTVSS			> 15
hIL-2-anti-HSA A46 (ligand, fused to anti-HSA VHH; also called IL2 mutein (K32E, R38G, F42K, C125S)) APTSSSTKKTQLQLEHLLLDLQMILNGINNYENPKLTGMLTKKFYMPKKATELKHLQCLEEELKPLEEVLNLAQSKNFHLRPRDLISNINVIVLELKGSETTFMCEYADETATIVEFLNRWITFSQSIISTLTGSGGSGGSGGSGEVQLVESGGGLVQPGGSLRLSCAASGSTWSINTLAWYRQAPGKQRDLVARISSGGSTYYADSVKGRFTISRDNSKNTLYLQMNSLRAEDTAVYYCYAQSTWYPPSWGQGTLVTVSS		no binding	
hIL-2-anti-HSA A50 (ligand, fused to anti-HSA VHH; also called hIL-2 mutein (K32E, Y45C, E62C, C125S)) APTSSSTKKTQLQLEHLLLDLQMILNGINNYENPKLTRMLTFKFCMPKKATELKHLQCLEECLKPLEEVLNLAQSKNFHLRPRDLISNINVIVLELKGSETTFMCEYADETATIVEFLNRWITFSQSIISTLTGSGGSGGSGGSGEVQLVESGGGLVQPGGSLRLSCAASGSTWSINTLAWYRQAPGKQRDLVARISSGGSTYYADSVKGRFTISRDNSKNTLYLQMNSLRAEDTAVYYCYAQSTWYPPSWGQGTLVTVSS		no binding	
hIL-2-anti-HSA A55 (ligand, fused to anti-HSA VHH; also called IL-2-IL-15 chimera 2) APTSSSTKKTQLQLEHLLLDLQMILNGIQSMEIDATTFKFYMPKKATELKHLQCLEEELKPLEEVLNLAQSKNFHLRPRDLISNINVIVLELKGSETTFMCEYADETATIVEFLNRWITFSQSIISTLTGSGGSGGSGGSGEVQLVESGGGLVQPGGSLRLSCAASGSTWSINTLAWYRQAPGKQRDLVARISSGGSTYYADSVKGRFTISRDNSKNTLYLQMNSLRAEDTAVYYCYAQSTWYPPSWGQGTLVTVSS		no binding	
hIL-2-anti-HSA A56 (ligand, fused to anti-HSA VHH; also called IL-2-IL-15 chimera 3) APTSSSTKKTQLQLEHLLLDLQMILNGIQSMEIDATKFYMPKKATELKHLQCLEEELKPLEEVLNLAQSKNFHLRPRDLISNINVIVLELKGSETTFMCEYADETATIVEFLNRWITFSQSIISTLTGSGGSGGSGGSGEVQLVESGGGLVQPGGSLRLSCAASGSTWSINTLAWYRQAPGKQRDLVARISSGGSTYYADSVKGRFTISRDNSKNTLYLQMNSLRAEDTAVYYCYAQSTWYPPSWGQGTLVTVSS		no binding	
hIL-2-anti-HSA A54 (ligand, fused to anti-HSA VHH; also called IL-2-IL-15 chimera 1) APTSSSTKKTQLQLEHLLLDLQMILNGINNYENPKLTDATLYMPKKATELKHLQCLEEELKPLEEVLNLAQSKNFHLRPRDLISNINVIVLELKGSETTFMCEYADETATIVEFLNRWITFSQSIISTLTGSGGSGGSGGSGEVQLVESGGGLVQPGGSLRLSCAASGSTWSINTLAWYRQAPGKQRDLVARISSGGSTYYADSVKGRFTISRDNSKNTLYLQMNSLRAEDTAVYYCYAQSTWYPPSWGQGTLVTVSS		no binding	
